Our source for the FRET efficiency values is publication PMC3689823.

Test [1] concerns the target YFP-Clu (human). Briefly: FRET or BRET; sensitized emission FRET in co-transfected HEK293T cells, CFP donor and YFP receptor, laser confocal microscope. A general note: BRET reads energy transfer from a luciferase to a nearby fluorophore.
For test [2], the target named is YFP-Clu (human). The test is described as follows: FRET or BRET; receptor (acceptor) photobleaching FRET in co-transfected HEK293T cells, CFP donor and YFP receptor, bleached at 515 nm for 60 s.

On to “CFP-SelR′ (from UniProt Q9NZV6 1-116) (enzyme)”, for which the FRET efficiency in test [1] came to 40%; in test [2], 41.8%.
